The text below walks through data of the supplement of paper PMC10567573.

B1: EHMT1 (parent)
chain: FHKDCASRVNNASYCPHCGEESSK
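Note: lentivirally expressed fusions sorted by FACS into six bins by GFP to DsRed ratio, PSI derived from sequencing read proportions per bin multiplied by bin number.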

In the data set the parent is B1. Nature of the data set: protein stability index of a GFP-peptide fusion (GPS, HEK-293T) (PSI 1-6); higher = more stable. The following applies: c terminus: a fixed tail appended.
Turning to FHKDCTSRVNNASYCPHCGEESSK [A6T], the protein stability index stood at 3.6.
On to FHKDCASRVENASYCPHCGEESSK [N10E], for which the protein stability index was 3.69.
As to FHKDCASRVYNASYCPHCGEESSK [N10Y], the protein stability index was determined as 1.95.
For FHKDCASRVINASYCPHCGEESSK [N10I], the protein stability index was 3.08.
Take FHKDCASRVCNASYCPHCGEESSK [N10C]: the protein stability index was 3.75.
Turning to FHKDCASRVPNASYCPHCGEESSK [N10P], the protein stability index was determined as 3.33.
With FHKDCASRVQNASYCPHCGEESSK [N10Q], the protein stability index was determined as 3.52.
Take FHKDCASRVHNASYCPHCGEESSK [N10H]: the protein stability index was determined as 3.94.
FHKDCASRVFNASYCPHCGEESSK [N10F]: the protein stability index turned out to be 2.82.
With FHKDCASRVWNASYCPHCGEESSK [N10W], the protein stability index was found to be 2.37.
On to FHKDCASRVMNASYCPHCGEESSK [N10M], for which the protein stability index is 2.98.
Consider FHKDCASRVANASYCPHCGEESSK [N10A], for which the protein stability index was found to be 3.6.
Consider FHKDCASRVRNASYCPHCGEESSK [N10R], for which the protein stability index amounted to 2.99.
Take FHKDCASRVSNASYCPHCGEESSK [N10S]: the protein stability index stood at 3.24.
With FHKDCASRVVNASYCPHCGEESSK [N10V], the protein stability index was determined as 2.92.
In the case of FHKDCASRVLNASYCPHCGEESSK [N10L], the protein stability index was found to be 3.31.
With FHKDCASRVTNASYCPHCGEESSK [N10T], the protein stability index amounted to 3.03.
For FHKDCASRVGNASYCPHCGEESSK [N10G], the protein stability index is 3.74.
With FHKDCASRVKNASYCPHCGEESSK [N10K], the protein stability index turned out to be 3.1.
As to FHKDCASRVDNASYCPHCGEESSK [N10D], the protein stability index amounted to 3.9.
For the variant FHKDCASRVNCASYCPHCGEESSK [N11C], the protein stability index is 3.21.
Take FHKDCASRVNLASYCPHCGEESSK [N11L]: the protein stability index was determined as 2.53.
On to FHKDCASRVNSASYCPHCGEESSK [N11S], for which the protein stability index came to 3.08.
In the case of FHKDCASRVNYASYCPHCGEESSK [N11Y], the protein stability index worked out at 2.68.
With FHKDCASRVNQASYCPHCGEESSK [N11Q], the protein stability index came out at 3.47.
For the variant FHKDCASRVNTASYCPHCGEESSK [N11T], the protein stability index amounted to 3.21.
Consider FHKDCASRVNRASYCPHCGEESSK [N11R], for which the protein stability index came out at 3.47.
Then FHKDCASRVNMASYCPHCGEESSK [N11M], with 3.36; and FHKDCASRVNWASYCPHCGEESSK [N11W], with 1.89; and FHKDCASRVNFASYCPHCGEESSK [N11F], with 2.48.
As for FHKDCASRVNGASYCPHCGEESSK [N11G], the protein stability index worked out at 3.37.
As to FHKDCASRVNIASYCPHCGEESSK [N11I], the protein stability index stood at 2.22.
For FHKDCASRVNPASYCPHCGEESSK [N11P] the value was 3.25.
For FHKDCASRVNKASYCPHCGEESSK [N11K] the value was 3.54; for FHKDCASRVNVASYCPHCGEESSK [N11V], 3.12; for FHKDCASRVNHASYCPHCGEESSK [N11H], 3.82.
As for FHKDCASRVNDASYCPHCGEESSK [N11D], the protein stability index amounted to 3.64.
Regarding FHKDCASRVNAASYCPHCGEESSK [N11A], the protein stability index worked out at 2.91.
FHKDCASRVNEASYCPHCGEESSK [N11E]: the protein stability index was 3.46.
As for FHKDCASRVNNASGCPHCGEESSK [Y14G], the protein stability index was determined as 3.38.
For FHKDCASRVNNASKCPHCGEESSK [Y14K] the value was 3.59; for FHKDCASRVNNASACPHCGEESSK [Y14A], 3.31.
On to FHKDCASRVNNASCCPHCGEESSK [Y14C], for which the protein stability index was 3.66.
For the variant FHKDCASRVNNASICPHCGEESSK [Y14I], the protein stability index turned out to be 3.47.
Consider FHKDCASRVNNASPCPHCGEESSK [Y14P], for which the protein stability index came out at 3.9.
With FHKDCASRVNNASMCPHCGEESSK [Y14M], the protein stability index is 3.59.
As for FHKDCASRVNNASDCPHCGEESSK [Y14D], the protein stability index came out at 3.77.
As for FHKDCASRVNNASFCPHCGEESSK [Y14F], the protein stability index was 3.36.
Turning to FHKDCASRVNNASECPHCGEESSK [Y14E], the protein stability index came to 4.05.
For FHKDCASRVNNASNCPHCGEESSK [Y14N], the protein stability index worked out at 3.75.
For the variant FHKDCASRVNNASLCPHCGEESSK [Y14L], the protein stability index was 3.82.
Then FHKDCASRVNNASHCPHCGEESSK [Y14H], with 3.47; and FHKDCASHVNNASYCPHCGEESSK [R8H], with 4.23.
Take FHKDCASFVNNASYCPHCGEESSK [R8F]: the protein stability index came out at 2.35.
Then FHKDCASDVNNASYCPHCGEESSK [R8D], with 3.43; and FHKDCASIVNNASYCPHCGEESSK [R8I], with 3.94.
As to FHKDCASMVNNASYCPHCGEESSK [R8M], the protein stability index is 3.37.
With FHKDCASLVNNASYCPHCGEESSK [R8L], the protein stability index was found to be 3.39.
Consider FHKDCASYVNNASYCPHCGEESSK [R8Y], for which the protein stability index worked out at 2.63.
Take FHKDCASWVNNASYCPHCGEESSK [R8W]: the protein stability index is 1.91.
For the variant FHKDCASAVNNASYCPHCGEESSK [R8A], the protein stability index was determined as 3.78.
Then FHKDCASGVNNASYCPHCGEESSK [R8G], with 3.97.
Turning to FHKDCASEVNNASYCPHCGEESSK [R8E], the protein stability index turned out to be 2.86.
Then FHKDCASTVNNASYCPHCGEESSK [R8T], with 3.1.
As for FHKDCASPVNNASYCPHCGEESSK [R8P], the protein stability index turned out to be 3.37.
With FHKDCASKVNNASYCPHCGEESSK [R8K], the protein stability index came out at 3.46.
As to FHKDCASVVNNASYCPHCGEESSK [R8V], the protein stability index is 3.34.
Regarding FHKDCASCVNNASYCPHCGEESSK [R8C], the protein stability index was determined as 3.66.
Then FHKDCASSVNNASYCPHCGEESSK [R8S], with 3.49; and FHKDCASQVNNASYCPHCGEESSK [R8Q], with 3.59; and FHKDCASNVNNASYCPHCGEESSK [R8N], with 3.94.
Turning to FHKWCASRVNNASYCPHCGEESSK [D4W], the protein stability index is 1.96.
Then FHKTCASRVNNASYCPHCGEESSK [D4T], with 2.47.
Turning to FHKVCASRVNNASYCPHCGEESSK [D4V], the protein stability index worked out at 2.41.
For the variant FHKYCASRVNNASYCPHCGEESSK [D4Y], the protein stability index was determined as 2.02.
For FHKDCAFRVNNASYCPHCGEESSK [S7F], the protein stability index is 2.16.
For the variant FHKDCANRVNNASYCPHCGEESSK [S7N], the protein stability index came out at 2.83.
Regarding FHKDCAQRVNNASYCPHCGEESSK [S7Q], the protein stability index was 3.23.
FHKDCADRVNNASYCPHCGEESSK [S7D]: the protein stability index was found to be 3.23.
On to FHKDCAIRVNNASYCPHCGEESSK [S7I], for which the protein stability index worked out at 3.54.
For the variant FHKDCARRVNNASYCPHCGEESSK [S7R], the protein stability index was 3.97.
In the case of FHKDCAARVNNASYCPHCGEESSK [S7A], the protein stability index was 3.71.
Turning to FHKDCAYRVNNASYCPHCGEESSK [S7Y], the protein stability index stood at 2.12.
With FHKDCAKRVNNASYCPHCGEESSK [S7K], the protein stability index was 4.04.
Turning to FHKDCAMRVNNASYCPHCGEESSK [S7M], the protein stability index came to 3.54.
For FHKDCAERVNNASYCPHCGEESSK [S7E] the value was 3.54; for FHKDCACRVNNASYCPHCGEESSK [S7C], 4.27.
In the case of FHKDCATRVNNASYCPHCGEESSK [S7T], the protein stability index is 3.28.
On to FHKDCAGRVNNASYCPHCGEESSK [S7G], for which the protein stability index came out at 3.47.
On to FHKDCAWRVNNASYCPHCGEESSK [S7W], for which the protein stability index turned out to be 2.76.
Then FHKDCAVRVNNASYCPHCGEESSK [S7V], with 3.72; and FHKDCAPRVNNASYCPHCGEESSK [S7P], with 2.87.
For FHKDCALRVNNASYCPHCGEESSK [S7L] the value was 3.44; for FHKDCAHRVNNASYCPHCGEESSK [S7H], 4.18.
